Assay results taken from the supplement of paper PMC7877785.
± gives the uncertainty stated by the source.

Experiment: self-splicing fitness, log relative to wild type (ln ratio); higher = more splicing; Tetrahymena group I intron in knt gene, E. coli kanamycin selection, DiMSum; sequences stand for … in CUCUCU…GGAGGGAAAAGUUAUCAGGCAUGCACCUGGUAGCUAGUCUUUAAACCAAUAGAUUGCAUCGGUUUAAAAGGCAAGACCGUCAAAUUGCGGGAAAGGGGUCAACAGCCGUUCAGUACCAAGUCUCAGGGGAAACUUUGAGAUGGCCUUGCAAAGGGUAUGGUAAUAAGCUGACGGACAUGGUCCUAACCACGCAGCCAAGUCCUAAGUCAACAGAUCUUCUGUUGAUAUGGAUGCAGUUCACAGACUAAAUGUCGGUCGGGGAAGAUGUAUUCUUCUCAUAAGAUAUAGUCGGACCUCUCCUUAAUGGGAGCUAGCGGAUGAAGUGAUGCAACACUGGAGCCGCUGGGAACUAAUUUGUAUGCGAAAGUAUAUUGAUUAGUUUUGGAGUACUCGUGGUCG
Method in brief: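 Colonies from six replicate transformations of E. coli BL21(DE3) were pooled and amplicon-sequenced on an Illumina HiSeq 2500. The library placed an intron with all eight P1ex-region nucleotides randomised inside the knt kanamycin-resistance gene on pET-22b(+), and cells grew overnight at 37°C or 30°C on LB agar with or without 25 μg/mL kanamycin (plus 100 μg/mL carbenicillin, 50 μM IPTG, 0.2% rhamnose). Fitness is the DiMSum error-weighted combination of wild-type-normalised replicate fold changes, kanamycin versus none.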

Row | Sequence | self-splicing fitness (ln) (30 °C) | self-splicing fitness (ln) (37 °C)
1 | UAACAGCAAUAUUACGCUAC | -3.37 ± 0.15 | -2.24 ± 0.2
2 | UAACAGCAAUAUUACGCUCG | -0.803 ± 0.096 | -0.212 ± 0.098
3 | UAACAGCAAUAUUACGGAGU | -3.7 ± 0.17 | -1.41 ± 0.12
4 | UAACAGCAAUAUUACGGAUC | -3.92 ± 0.22 | -2.17 ± 0.15
5 | UAACAGCAAUAUUACGGCCA | -0.28 ± 0.066 | -0.439 ± 0.071
6 | UAACAGCAAUAUUACGGCUU | -0.716 ± 0.082 | -0.0863 ± 0.1
7 | UAACAGCAAUAUUACGGUGC | -3.42 ± 0.23 | -2.86 ± 0.2
8 | UAACAGCAAUAUUACGGUUG | -0.966 ± 0.043 | -1.04 ± 0.064
9 | UAACAGCAAUAUUACGGUUU | -1.14 ± 0.05 | -0.621 ± 0.063
10 | UAACAGCAAUAUUACGUAAU | -3.27 ± 0.14 | -2.23 ± 0.14
11 | UAACAGCAAUAUUACGUAGC | -3.86 ± 0.17 | -2.02 ± 0.11
12 | UAACAGCAAUAUUACGUGCC | -3.5 ± 0.22 | -1.9 ± 0.15
13 | UAACAGCAAUAUUACGUUCG | -0.514 ± 0.057 | 0.266 ± 0.073
14 | UAACAGCAAUAUUACGUUCU | -1.17 ± 0.08 | -0.668 ± 0.079
15 | UAAGAGCAAUAUUACGACGA | -1.72 ± 0.19 | -1.61 ± 0.21
16 | UAAGAGCAAUAUUACGACGU | -2.32 ± 0.33 | -1.88 ± 0.39
17 | UAAGAGCAAUAUUACGAUCC | -1.81 ± 0.36 | –
18 | UAAGAGCAAUAUUACGAUCG | -3.62 ± 0.17 | -1.53 ± 0.18
19 | UAAGAGCAAUAUUACGAUUC | – | -0.537 ± 0.43
20 | UAAGAGCAAUAUUACGCGCG | -1.38 ± 0.24 | -1.35 ± 0.3
21 | UAAGAGCAAUAUUACGCUGA | – | -1.15 ± 0.29
22 | UAAGAGCAAUAUUACGCUGC | – | -1.15 ± 0.37
23 | UAAGAGCAAUAUUACGCUGU | -3.35 ± 0.45 | -2.22 ± 0.34
24 | UAAGAGCAAUAUUACGGAGC | -3.44 ± 0.4 | –
25 | UAAGAGCAAUAUUACGGAGU | -3.26 ± 0.23 | -2.21 ± 0.25

Row | Sequence | self-splicing fitness (ln) (30 °C) | self-splicing fitness (ln) (37 °C)
26 | UAAGAGCAAUAUUACGGAUA | -2.84 ± 0.44 | -1.54 ± 0.4
27 | UAAGAGCAAUAUUACGUAAA | -3.2 ± 0.37 | -1.89 ± 0.33
28 | UAAGAGCAAUAUUACGUCCA | -3.08 ± 0.34 | -2.4 ± 0.41
29 | UAAGAGCAAUAUUACGUCUU | -3.28 ± 0.2 | -1.49 ± 0.18
30 | UAAGAGCAAUAUUACGUGAC | -3.63 ± 0.27 | -2.8 ± 0.34
31 | UAAGAGCAAUAUUACGUGCU | -4.59 ± 0.31 | -2.09 ± 0.27
32 | UAAGAGCAAUAUUACGUGGC | -4.44 ± 0.27 | -2.2 ± 0.2
33 | UAAGAGCAAUAUUACGUGUA | -2.36 ± 0.36 | -2.21 ± 0.27
34 | UAAGAGCAAUAUUACGUUAG | -3.43 ± 0.24 | -3.1 ± 0.27
35 | UAAGAGCAAUAUUACGUUUA | -2.31 ± 0.12 | -1.36 ± 0.13
36 | UAAUAGCAAUAUUACGAAAA | -2.83 ± 0.26 | -1.59 ± 0.15
37 | UAAUAGCAAUAUUACGAACA | -1.07 ± 0.14 | -0.685 ± 0.13
38 | UAAUAGCAAUAUUACGAAGA | – | -2.76 ± 0.31
39 | UAAUAGCAAUAUUACGAAGG | -3.08 ± 0.17 | -1.6 ± 0.17
40 | UAAUAGCAAUAUUACGAAUG | -1.37 ± 0.11 | -0.382 ± 0.11
41 | UAAUAGCAAUAUUACGACUA | -0.456 ± 0.11 | -0.0379 ± 0.13
42 | UAAUAGCAAUAUUACGAGAA | – | -1.22 ± 0.26
43 | UAAUAGCAAUAUUACGAUCC | -3.33 ± 0.44 | –
44 | UAAUAGCAAUAUUACGAUCU | -1.4 ± 0.098 | -0.601 ± 0.12
45 | UAAUAGCAAUAUUACGAUUG | 0.193 ± 0.068 | 0.0133 ± 0.076
46 | UAAUAGCAAUAUUACGCAAG | -1.92 ± 0.29 | -1.04 ± 0.25
47 | UAAUAGCAAUAUUACGCCCG | – | 0.42 ± 0.42
48 | UAAUAGCAAUAUUACGCCUA | -0.175 ± 0.16 | 0.0899 ± 0.19
49 | UAAUAGCAAUAUUACGCGAA | -3.51 ± 0.24 | -0.873 ± 0.14
50 | UAAUAGCAAUAUUACGCGCC | -2.47 ± 0.34 | -1.39 ± 0.41

Row | Sequence | self-splicing fitness (ln) (30 °C) | self-splicing fitness (ln) (37 °C)
51 | UAAUAGCAAUAUUACGCUCC | -1.74 ± 0.39 | -0.899 ± 0.32
52 | UAAUAGCAAUAUUACGGAGU | -4.07 ± 0.27 | -2.82 ± 0.22
53 | UAAUAGCAAUAUUACGGCCG | -0.212 ± 0.12 | 0.0754 ± 0.16
54 | UAAUAGCAAUAUUACGGCUA | 0.00533 ± 0.088 | 0.527 ± 0.094
55 | UAAUAGCAAUAUUACGGCUG | -0.00933 ± 0.11 | -0.0273 ± 0.16
56 | UAAUAGCAAUAUUACGGGAG | -2.84 ± 0.17 | -3.3 ± 0.22
57 | UAAUAGCAAUAUUACGGGUU | -3.33 ± 0.24 | -2.65 ± 0.21
58 | UAAUAGCAAUAUUACGGUAG | -3.43 ± 0.14 | -2.05 ± 0.14
59 | UAAUAGCAAUAUUACGGUUG | -0.0942 ± 0.085 | -0.0839 ± 0.091
60 | UAAUAGCAAUAUUACGUACU | -1.91 ± 0.094 | -0.805 ± 0.088
61 | UAAUAGCAAUAUUACGUUCG | -0.563 ± 0.11 | 0.133 ± 0.12
62 | UACAAGCAAUAUUACGAAAC | – | -1.61 ± 0.32
63 | UACAAGCAAUAUUACGAAUU | -2.48 ± 0.16 | -2.99 ± 0.26
64 | UACAAGCAAUAUUACGAGGG | -2.8 ± 0.14 | -1.47 ± 0.14
65 | UACAAGCAAUAUUACGAUAC | -3.7 ± 0.44 | -2.34 ± 0.25
66 | UACAAGCAAUAUUACGCAUA | -2.07 ± 0.11 | -0.871 ± 0.11
67 | UACAAGCAAUAUUACGCCAC | -2.95 ± 0.27 | –
68 | UACAAGCAAUAUUACGCGGA | -1.85 ± 0.092 | -1.21 ± 0.098
69 | UACAAGCAAUAUUACGCGGC | -3.59 ± 0.24 | -2.91 ± 0.31
70 | UACAAGCAAUAUUACGCUAC | -3.76 ± 0.29 | -2.26 ± 0.21
71 | UACAAGCAAUAUUACGCUCU | -1.36 ± 0.087 | -0.0585 ± 0.11
72 | UACAAGCAAUAUUACGGACA | -0.516 ± 0.087 | 0.0805 ± 0.083
73 | UACAAGCAAUAUUACGGACG | -0.321 ± 0.075 | 0.44 ± 0.097
74 | UACAAGCAAUAUUACGGACU | -1.22 ± 0.079 | -0.00357 ± 0.085
75 | UACAAGCAAUAUUACGGGUG | -0.523 ± 0.04 | -0.55 ± 0.054

Row | Sequence | self-splicing fitness (ln) (30 °C) | self-splicing fitness (ln) (37 °C)
76 | UACAAGCAAUAUUACGGUUA | -0.0426 ± 0.052 | -0.221 ± 0.063
77 | UACAAGCAAUAUUACGUCGG | -2.46 ± 0.082 | -0.921 ± 0.088
78 | UACAAGCAAUAUUACGUGUU | -2.85 ± 0.081 | -1.58 ± 0.11
79 | UACAAGCAAUAUUACGUUGC | -4.71 ± 0.42 | -2.94 ± 0.27
80 | UACAAGCAAUAUUACGUUUC | -2.55 ± 0.2 | -1.72 ± 0.2
81 | UACCAGCAAUAUUACGACUG | -4.48 ± 0.39 | -3.05 ± 0.25
82 | UACCAGCAAUAUUACGAGAG | -2.64 ± 0.12 | -1.12 ± 0.081
83 | UACCAGCAAUAUUACGAGAU | -3.69 ± 0.21 | -3.25 ± 0.13
84 | UACCAGCAAUAUUACGAGUA | -1.25 ± 0.085 | -1.69 ± 0.08
85 | UACCAGCAAUAUUACGAUCA | -0.119 ± 0.07 | -0.323 ± 0.09
86 | UACCAGCAAUAUUACGAUGA | -0.0346 ± 0.056 | -0.119 ± 0.065
87 | UACCAGCAAUAUUACGAUGG | -3.01 ± 0.11 | -1.25 ± 0.091
88 | UACCAGCAAUAUUACGCAGA | -1.24 ± 0.11 | -0.165 ± 0.11
89 | UACCAGCAAUAUUACGCAGC | -2.72 ± 0.18 | -1.87 ± 0.23
90 | UACCAGCAAUAUUACGCCGU | -1.4 ± 0.14 | -1.6 ± 0.23
91 | UACCAGCAAUAUUACGCUUG | -1.01 ± 0.073 | -0.79 ± 0.095
92 | UACCAGCAAUAUUACGGACC | -0.962 ± 0.071 | -0.872 ± 0.086
93 | UACCAGCAAUAUUACGGAUG | -0.756 ± 0.055 | 0.494 ± 0.085
94 | UACCAGCAAUAUUACGGCCA | -0.369 ± 0.073 | -0.0799 ± 0.097
95 | UACCAGCAAUAUUACGGGAC | -3.46 ± 0.19 | -2.31 ± 0.2
96 | UACCAGCAAUAUUACGGGUU | -2.21 ± 0.085 | -1.46 ± 0.1
97 | UACCAGCAAUAUUACGUAAC | -2.64 ± 0.13 | -2.18 ± 0.2
98 | UACCAGCAAUAUUACGUAGG | -3.19 ± 0.2 | -2.74 ± 0.24
